Measurements taken from patent publication US20230212266A1 (FRED HUTCHINSON CANCER CENTER, published 2023).

Legend:
[1] = target: T1, SARS-CoV-2 receptor binding domain (RBD) (SARS-CoV-2, UniProt P0DTC2 319-591); experiment: BLI: mAb on anti-human Fc probe, dipped in the antigen
[2] = target: T1, SARS-CoV-2 receptor binding domain (RBD); experiment: BLI, mAb on anti-human Fc probe, antigen in solution
[3] = target: T1, SARS-CoV-2 receptor binding domain (RBD); experiment: as above; remark: listed apart in the source
[4] = target: T1, SARS-CoV-2 receptor binding domain (RBD); experiment: BLI: mAb on anti-human Fc probe, dipped in the antigen; remark: listed apart in the source
[5] = target: T1, SARS-CoV-2 receptor binding domain (RBD); experiment: as above; remark: listed apart in the source
[6] = target: T1, SARS-CoV-2 receptor binding domain (RBD); experiment: as above; remark: listed apart in the source
[7] = target: T1, SARS-CoV-2 receptor binding domain (RBD); experiment: as above; remark: listed apart in the source
[8] = target: T1, SARS-CoV-2 receptor binding domain (RBD); experiment: as above; remark: listed apart in the source
[9] = target: T1, SARS-CoV-2 receptor binding domain (RBD); experiment: as above; remark: listed apart in the source
[10] = target: T1, SARS-CoV-2 receptor binding domain (RBD); experiment: as above; remark: listed apart in the source
[11] = target: T1, SARS-CoV-2 receptor binding domain (RBD); experiment: BLI; mAb loaded on anti-human Fc probe, dipped in antigen

B1: CV2-48 (antibody, V domains shown)
VH: QLQLQESGPGLVKPSETLSLTCTVSGGSISSSSYYWGWIRQPPGKGLEWIGNIYYSGITYYNPSLKSRVTISVDTSKNQFSLKLSSVTAADTAVYYCARQLWGYYDSSGYYAFDIWGQGTMVTVSS
VL: QSALTQPASVSGSPGQSITISCTGTSSDVGSYNLVSWYQQHPGKAPKLMIYEGSKRPSGVSNRFSGSKSGNTASLTISGLQAEDEAAYYCCSYVGSSTYVVFGGGTKLTVL
B1: binds [1].

B2: CV1 (antibody, V domains shown)
VH: QVQLQESGPGLVKPSETLSLTCTVSGYSISSGYYWGWIRQPPGKGLEWIGSIYHSGSTYYNPSLKSRVTISVDTSKNQFSLKLSSVTAADTAVYYCARTPLSLRLRYNWYFDLWGRGTLVTVSS
VL: not shown
notes: expressed as IgG
B2: no binding [2].

B3: CV11 (antibody, V domains shown)
VH: QVQLQESGPGLVKPSQTLSLTCTVSGGSISSGGYYWSWIRQHPGKGLEWIGYIYYSGSTYYNPSLKSRVTISVDTSKNQFSLKLSSVTAADTAVYYCARETTGHFDYWGQGTLVTVSS
VL: EIVLTQSPATLSLSPGERATLSCRASQSVSSYLAWYQQKPGQAPRLLIYDASNRATGIPARFSGSGSGTDFTLTISSLEPEDFAVYYCQQRSNWPPIFTFGPGTKVDIK
B3: no binding [3].

B4: CV2-52 (antibody, V domains shown)
VH: QVQLVESGGGVVQPGRSLRLSCAASGFTFSSYAMHWVRQAPGKGLEWVAVISYDGINKYYADSVKGRFTISRDSSKNTLYLQMNSLRAEDTAVYYCARGGVGYQLLFGNDWFDPWGQGTLVTVSS
VL: QSALTQPASVSGSPGQSITISCTGTSSDVGGYNYVSWYQQHPGKAPKLMIYEVSNRPSGVSNRFSGSKSGNTASLTISGLQAEDESDYYCSSYTTSSTLYVFGTGTKVTVL
B4: no binding [4].

B5: CV2-53 (antibody, V domains shown)
VH: QVQLVQSGAEVKKPGSSVKVSCKASGGTFTSYAITWVRQAPGQGLEWMGGIIPIFGTANYAQKFQGRVTITADESTSTAYMELSSLRSEDTAVYYCARVGAYDSSGYYQDLWGRGTLVTVSS
VL: EIVLTQSPATLSLSPGERATLSCRASQSVSSYLAWYQQKPGQAPRLLIYDASNRATGIPARFSGSGSGTDFTLTISSLEPEDFAVYYCQQRSNWPPVITFGQGTRLEIK
B5: no binding [5].

B6: CV2-54 (antibody, V domains shown)
VH: QVQLVQSGAEVKKPGSSVKVSCKASGGTFSSYTISWVRQAPGQGLEWMGGIIPIFGTANYAQNFQGRVTITADESTSTAYMELSSLRSEDTAVYYCARVSYYDSSGYYTDYWGQGTLVTVSS
VL: EIVLTQSPATLSLSPGERATLSCRASQSVSSFLAWYQQKPGQAPRLLIYDASNRATGIPARFSGSGSGTDFTLTINSLEPEDFAVYYCQQRSNWPPEYTFGQGTKLEIK
B6: no binding [6].

B7: CV2-56 (antibody, V domains shown)
VH: QVQLVESGGGVVQPGNSLRLSCVASGFKFSSSAMHWVRQAPGKGLEWVAIIWFHGNTKFYGDFVKGRFTVSRDNSNNTLHLQMNSLRAEDTAVYHCARASSDYGGAFDIWGQGTMVTVSS
VL: EIVMTQSPATLSVSLGERATLSCRASQSVTSSLAWYQHKPGQAPRLLIYGASTRATGIPARFSGSGSGTEFTLTISSLQSEDFAVYFCQQYNNWPPWTFGQGTKVEVT
B7: no binding [7].

B8: CV2-57 (antibody, V domains shown)
VH: QVQLVQSGAEVKKPGASVKVSCKASGYNFISYGISWVRQAPGQGLEWMGWISAYNGNTNYAQKLQGRVTMTTDTSTSTAYMELRSLRSDDTAVYYCARVRIFGVVIIVDTAMVLDYWGQGTLVTVSS
VL: EIVLTQSPATLSLSPGERATLSCRASQSVSSYLAWYQQKPGQAPRLLIYDASNRATGIPARFSGSGSGTDFTLTISSLEPEDFAVYYCQQRSNWPPRLTFGGGTKVEIK
B8: no binding [8].

B9: CV2-58 (antibody, V domains shown)
VH: QVQLVQSGAEVKKPGSSVKVSCKASGGTFSSYAISWVRQAPGQGLEWMGRIIPILDITNYAQKFQGRVTITADKSTSTAYMELSSLRSEDTAVYYCARGLWRSSIAGLHVPYGMDVWGQGTTVTVSS
VL: QSVLTQPPSVSAAPGQKVTISCSGSSSNIGNNYVSWYQQLPGTAPQLLIYDNNKRPSRIPDRFSGSKSGTSATLGITGLQTGDEAVYYCGTWDSSLSAVVFGGGTKLTVL
B9: no binding [9].

B10: CV2-59 (antibody, V domains shown)
VH: QVQLVQSGAEVKKPGASVKVSCKVSGYTLTELSMHWVRQAPGKGLEWMGGFDPEDGETIYAQKFQGRVTMTEDTSTDTAYMELSSLRSEDTAVYYCATGPTVTTVTNWFDPWGQGTLVTVSS
VL: QSVLTQPPSVSAAPGQKVTISCSGSSSNIGNNYVSWYQQLPGTAPKLLIYDNNKRPSGIPDRFSGSKSGTSATLGITGLQTGDEADYYCGTWDSSLSAEVFGTGTKVTVL
B10: no binding [10].

B11: CV2-41 (antibody, V domains shown)
VH: QVQLQQWGAGLLKPSETLSLTCAVYGGSFSGYYWSWIRQPPGKGLEWIGEINHSGSTNYNPSLKSRVTISVDTSTNQFSLKLSSVTAADTAVYYCARRVHYDILTGFYGGALITRAFDIWGQGTMVTVSS
VL: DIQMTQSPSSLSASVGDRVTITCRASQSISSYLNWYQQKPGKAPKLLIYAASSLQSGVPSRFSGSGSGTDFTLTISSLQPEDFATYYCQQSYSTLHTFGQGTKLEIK
B11: binds [11].

B12: CV2-65 (antibody, V domains shown)
VH: QVQLQESGPGLVKPSETLSLTCTVSGGSISSYYWSWIRQPAGKGLEWIGRIYTSGSTNYNPSLKSRVTMSVDTSKNQFSLKLSSVTAADTAVYYCAREDSYGSGSTGAFDIWGQGTMVTVSS
VL: SYELTQPPSVSVSPGQTARITCSGDALPKQYAYWYQQKPGQAPVLVIYKDSERPSGIPERFSGSSSGTTVTLTISGVQAEDEADYYCQSADSSGTYVFGTGTKVTVL
B12: binds [11].

B13: CV2-66 (antibody, V domains shown)
VH: EVQLVESGGGLVQPGRSLRLSCTASGFTFGDYAMSWFRQAPGKGLEWVGFIRSKAYGGTTEYAASVKGRFTISRDDSKSIAYLQMNSLKTEDTAVYYCTRVHHCSGGSCYGYYFDYWGQGTLVTVSS
VL: EIVMTQSPATLSVSPGERATLSCRASQSVSSNLAWYQQKPGQAPRLLIYGASTRATGIPARFSGSGSGTEFTLTISSLQSEDFAVYYCQQYNNWVTFGGGTKVEIK
B13: binds [11].

B14: CV2-71 (antibody, V domains shown)
VH: EVQLLESGGGLGQPGGSLRLSCAASGFTFSNYAMSWVRQAPGKGLEWVSVISGSGGSTYYADSVKGRFTISRDNSKNTLYLQMNSLRAEDTAVYYCAKAGAVGYYDSNGYYYDVDYYYGMDVWGQGTTVTVSS
VL: QSVLTQPPSVSGAPGQRVTISCTGSSSNIGAGYDVHWYQQLPGTAPKLLIYGNSNRPSGVPDRFSGSKSGTSASLAITGLQAEDEADYYCQSYDSSLSGYVFGTGTKVTVL
B14: binds [11].

B15: CV2-75 (antibody, V domains shown)
VH: QVQLQESGPGLVKPSETLSLTCTVSGGSISSYYWSWIRQPPGKGLEWIGYVYYSGSTNYNPSLKSRVTISVDTSKNEFSLKLSSVTAADTAVYYCASSQRPDGNLYYFDYWGQGTLVTVSS
VL: SYVLTQPPSVSVAPGQTARITCGGNNIGSKTVHWYQQKPGQAPVLVVYDDSDRPSGIPERFSGSNSGNTATLTISRVEAGDEADYYCQVWDSSSDHYVFGTGTKVTVL
B15: binds [11].

B16: CV5 (antibody, V domains shown)
VH: QVQLVQSGAEVKKPGASVKVTCKASGYTFTSYYLHWVRQAPGQGLEWMGIINPSGGTTSYAQKFQGRVTMTRDTSTSTVYMELSSLRSEDTAVYYCARAGRRYSSSDDGAFDIWGQGTMVTVSS
VL: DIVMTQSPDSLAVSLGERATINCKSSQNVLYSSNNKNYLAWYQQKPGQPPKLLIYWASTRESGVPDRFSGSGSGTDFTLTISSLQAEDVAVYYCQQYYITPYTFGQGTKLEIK
B16: binds [11].

B17: CV30 (antibody, V domains shown)
VH: EVQLVESGGGLIQPGGSLRLSCAASGVIVSSNYMSWVRQAPGKGLEWVSVIYSGGSTYYADSVKGRFTISRDNSKNTLYLQMNSLRAEDTAVYYCARDLDVSGGMDVWGQGTTVTVSS
VL: not shown
B17: binds [11].

B18: CV43 (antibody, V domains shown)
VH: QVQLVESGGGVVQPGRSLRLSCAASGFTFSSYAMHWVRQAPGKGLEWVAVISYDGSNKYYADSVKGRFTISRDNSKNTLYLQMNSLRAEDTAVYYCARVTVVHFDYWGQGTLVTVSS
VL: NFMLTQPHSVSESPGKTVTISCTGSSGSIASNYVQWYQQRPGSAPTTVIYEDNQRPSGVPDRFSGSIDSSSNSASLTISGLKTEDEADYYCQSYDSSNWVFGGGTKLTVL
B18: binds [11].

B19: CV2-7 (antibody, V domains shown)
VH: EVQLVQSGAEVKKPGESLKISCKGSGNSFTSYWIGWVRQMPGKGLEWMGIIYPGDSDTRYSPSFQGQVTISADKSISTAYLQWSSLKASDTAMYYCARHRNYDILTGYRYYFDYWGQGTLVTVSS
VL: not shown
B19: binds [11].
